Assay [1] has as its target actin filaments. The experiment in a line: F-actin high-speed co-sedimentation, direct comparison with dystrophin.
In assay [2] the target is actin filaments. The experiment in a line: F-actin high-speed co-sedimentation.

What is called Kd is a measure of binding affinity in units of concentration. The low end stands for higher affinity, the high end for lower affinity.

“full-length recombinant utrophin (from UniProt G3V7L1 1-3418)”: the extent of lateral association with actin filaments (stoichiometry) (actin monomers per utrophin molecule) in assay [1] is 14.

On to “recombinant full-length mouse dystrophin (from UniProt P11531 1-3678)”, for which, in assay [2], the Bmax (actin monomers per dystrophin molecule) is 24 and the Kd came out at 400 nM.
